Substrate in series [1]: N=C(N)NCCCCNCCCCNC(=N)N
The series can be described thus: urea release, Quantichrome urea assay. It counts as biochemical, Thermus thermophilus. The conditions noted are these: assay as in ref. 26. The text has this:
urea release, Quantichrome urea assay on TtSpeBap (aminopropylagmatine ureohydrolase)

Substrate in series [2]: N=C(N)NCCCCN
The series can be described thus: homospermidine formation by HPLC, coupled with TtSpeBap. It is filed as biochemical, Thermus thermophilus. Particulars: 50 mM Tris-HCl pH 8.5, 1 mM NAD+, 10 µM MnCl2, 65 °C, TtSpeBap as coupling enzyme, agmatine is both donor and acceptor.

B1: TtSpeBap (aminopropylagmatine ureohydrolase) (Thermus thermophilus HB8) (protein)
chain: MRLVFGEKDTPYEEARVVVLPVPYDLSLSFLPGARRGPEAILLASRELEPFLLELGAAPEEVGIHAAEPVPWVAGMAEESHRLIREEALRHLRAGKWVVALGGDHSVTHPLVQAHREALGDFSLLHVDAHADLYPEWQGSVYSHASPFYRLLTEGFPLVQVGIRAMDRDSLRLARKKGVALFPAHRIHREGLPLDEILRALGKRVYISLDFDALDPSLMPSVGTPLPGGLSYRQVVDLLEAVFREKEVVGMDFVELSPNGQFHAEMTAAQLVYHAIGLKGLQAGWLSREVDHI
As for B1, in series [1], the Km amounted to 3840 ± 840 µM, the Vmax worked out at 2920 µmol/min/mg, the kcat turned out to be 1580 ± 230 s⁻¹ and the kcat/Km amounted to 419000 ± 32000 M⁻¹ s⁻¹.

B2: CdmS (caldomycin synthase) (Thermus thermophilus HB8; V6M) (protein)
chain: MQKKELLSTPVVPIDIKAFDAGPILEAMGKTAFQARNLHRAAEIYLRMLEDDCAVILTLAGSLVSAGQGLIVHDLIRKGLVDVIVATGANIVDQDFFEALGHRHYQGDPRADDEALRRLWIDRIYDTYIDEEELRHTDYTVAEIADGLEPRPYSSREFIWHMGRYLAERGLGEKSIVRAAYEEGVPIFVPAFSDSSAGFGLVYHQVKRPEAHVTIDSVADFRELTEIKLKAGTTGLVMLGGGVPKNFAQDIVVAAEVLGHRVEMHKYAIQITVADERDGGLSGSTLSEAQSWGKVDARLSQMVFAEATLAFPLLASYVWHRAPARAKRRYAELFREKAPA
notes: full-length gene in pET21b (NdeI/EcoRI), E. coli BL21(DE3) pLysS; no tag stated; heat treatment and Butyl column; 38 kDa on SDS-PAGE
Consider B2, for which the Km in series [2] is 95 ± 6 µM.

As a reminder, the Km is the concentration of substrate that gives half-maximal velocity. Usually Vmax stands for the rate approached at saturating substrate. The kcat is the maximal rate divided by the concentration of active sites. The kcat/Km is the second-order rate constant that governs catalysis at low substrate concentration.

The values above are taken from article PMC10981699, “Caldomycin, a new guanidopolyamine produced by a novel agmatine homocoupling enzyme involved in homospermidine biosynthesis” (Scientific Reports, 2024).
